Reference: patent publication US20040115786A1 (priority 2001, published 2004)

Assay: Stability of purified ArsR protein to freeze thaw
Format: physicochemical
Details: post-dialysis, 0.48 mg/ml in 50 mM Hepes pH 8.5, 200 mM NaCl, 15 mM DTT, 5% glycerol
Protocol: Dialysis was performed next. Glycerol was added to bring the pool to a concentration of 5% glycerol by volume. The pool was then diluted to approximately 1 mg/ml with the dialysis buffer listed below. The faction pool was dialyzed in 3500 Molecular Weight Cutoff tubing placed in 1 liter consisting of 50 mM Hepes, pH 8.5, 200 mM NaCl, 1 mM EDTA, 15 mM DTT, and 5% glycerol for five hours. The dialysis tubing was then placed in 4 liters of 50 mM Hepes, pH 8.5, 200 mM NaCl, 15 mM DTT, and 5% glycerol overnight to remove any EDTA. The pool was then clarified by centrifugation, the protein concentration was determined, and a SDS-PAGE was run of the results.
The final product of a pilot production (5 g whole cell pellet from 34 g total) yielded a protein concentration of 480 μg/ml (in a 0.05% polysorbate solution for stabilization of the protein and reduction of non-specific binding to the sensor surface). The total volume for this experiment was 3.6 ml, which yielded a total protein yield of 1.75 mg. This was dissolved in a buffer of 50 mM Hepes, pH 8.5, 200 mM NaCl, 15 mM DTT, and 5% Glycerol. Purity was greater than 95% by SDS PAGE. In this system, induction was tightly regulated and successful, with 30-40% of protein production in soluble fraction. The initial yield from IMAC for dialysis was 5 mg at 1.0 mg/ml., with visible precipitation post dialysis.

B1: ArsR: E. coli arsenic-binding, DNA-binding ars operon repressor protein, SEQ ID NO:2, expressed from codon-optimized synthetic gene (protein)
chain: MLQLTPLQLFKNLSDETRLGIVLLLREMGELCVCDLCMALDQSQPKISRHLAMLRESGILLDRKQGKWVHYRLSPHIPSWAAQIIEQAWLSQQDDVQVIARKLASVNCSGSSKAVCI
stability to freeze thaw cycles: stable to multiple freeze thaw cycles
